Holding throughout (test): BLI
For experiment [1], the target named is TRIM21–MC1 fusion protein (human) (UniProt P19474).
In experiment [2] the target is TRIM21–MH4 fusion protein (human) (UniProt P19474).
Experiment [3] has as its target TRIM21–ME2 fusion protein (human) (UniProt P19474).

pKd: −log10 of the molar value.

“recombinant MALT1 (BPS Bioscience), analyte in BLI (from UniProt Q9UDY8 1-824) (natural protein)”: the pKd in experiment [1] was 6.32; in experiment [2] it was 6.83; in experiment [3], 6.12.
